The results in this text go back to PMC10513939, “Phylogenetic and functional analysis of cyanobacterial Cytochrome c 6-like proteins” (Frontiers in Plant Science, 2023).

Experiment [1] addresses T1, Cytochrome f (soluble form, subunit of the cytochrome b 6 f complex) (Nostoc sp. PCC 7119, UniProt Q93SW9 45-298, heme group; reduced for ITC).
T1 chain: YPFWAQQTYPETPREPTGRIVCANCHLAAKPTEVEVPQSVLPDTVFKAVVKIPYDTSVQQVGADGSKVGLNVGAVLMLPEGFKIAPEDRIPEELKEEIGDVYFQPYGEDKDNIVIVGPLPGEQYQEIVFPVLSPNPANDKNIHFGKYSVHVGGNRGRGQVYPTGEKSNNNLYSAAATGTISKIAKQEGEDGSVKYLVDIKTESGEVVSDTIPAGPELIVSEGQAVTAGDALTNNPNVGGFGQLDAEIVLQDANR
In words: ITC.

Experiment [2] has as its target Cytochrome f (soluble form, subunit of the cytochrome b 6 f complex) (Nostoc sp. PCC 7119) (UniProt Q93SW9). Kind of experiment: ITC; oxidised Cyt c 6, c 6BC or c 6D (400 uM) injected (2 uL injections) into reduced Cyt f (40 uM) in the cell; 5 mM phosphate buffer pH 7.5, 0.02% (w/v) Triton X-100, 25 °C; single binding site model. (Isothermal titration calorimetry measures the heat released or taken up as one component is titrated into another.)

Experiment [3] concerns the target T1, Cytochrome f (soluble form, subunit of …). In words: ITC.
The target in experiment [4] is T2, Cytochrome f (soluble form, subunit of the cytochrome b 6 f complex) (Nostoc sp. PCC 7119, UniProt Q93SW9 45-298, heme group; reduced for ITC).
T2 construct: Cytochrome f, subunit of the cytochrome b6f complex, soluble form heterologously expressed; construct as described in earlier work (Albarran et al., 2005); PCC 7120; Soluble form: as far as I recall, the lumenal domain without the C-terminal membrane anchor and without the signal peptide; also called Cyt f; soluble Cyt f; source: E. coli co-transformed with pEC86, extracted from the periplasmic …
T2 sequence (looked up): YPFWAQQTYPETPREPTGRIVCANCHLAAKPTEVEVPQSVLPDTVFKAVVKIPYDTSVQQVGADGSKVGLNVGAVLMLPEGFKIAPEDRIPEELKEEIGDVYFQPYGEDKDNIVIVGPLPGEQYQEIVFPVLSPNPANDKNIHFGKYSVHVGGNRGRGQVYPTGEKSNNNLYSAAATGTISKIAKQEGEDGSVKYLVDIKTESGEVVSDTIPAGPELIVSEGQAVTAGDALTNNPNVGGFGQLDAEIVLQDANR
Kind of experiment: ITC; oxidised Cyt c 6, c 6BC or c 6D (400 uM) injected (2 uL injections) into reduced Cyt f (40 uM) in the cell; 5 mM phosphate buffer pH 7.5, 0.02% (w/v) Triton X-100, 25 °C; single binding site model. The conditions noted are these: both partners purified.

B1: Cytochrome c 6BC (natural protein)
chain: ENTINGEQIFSVHCAGCHINGSNIIRRGKNLQKKTLKKYGMDSLEAIEAIVTNGKNNMSAYKDRLSEQEIQDVAAYVLEQAEKGWR
modifications: heme group; oxidised for ITC
For B1, the affinity in experiment [1], expressed as Kd, was 11 µM. Moreover, the stoichiometry N (in general, the number of molecules, sites or subunits per partner or assembly) in experiment [2] stood at 1. Moreover, the Ka in experiment [3] stood at 89000 M⁻¹.

B2: Cytochrome c 6D (natural protein)
chain: AELPTGAKIFNNNCASCHIGGGNILISEKTLKKEALLKYLEDYETNSIQAIIHQIQYGKNAMPAFKDKLSTEEILEVAAYIFQKAEKDWSNLEKEG
modifications: heme group; oxidised for ITC
As to B2, the equilibrium dissociation constant (Kd) (commonly the constant that tells how readily two partners part at equilibrium) in experiment [1] worked out at 2 µM. In experiment [2], this molecule displayed a fold higher KA and fold lower KD than for Cyt c 6 and Cyt c 6BC with Cyt f of 6 fold; a stoichiometry N of 1. The molecule also had a Ka in experiment [3] of 500000 M⁻¹.

B3: Cytochrome c 6 (natural protein, Nostoc sp. PCC 7119, UniProt P0A3X8 26-111, looked up)
chain: ADSVNGAKIFSANCASCHAGGKNLVQAQKTLKKADLEKYGMYSAEAIIAQVTNGKNAMPAFKGRLKPEQIEDVAAYVLGKADADWK
modifications: heme group; oxidised for ITC
notes: Cytochrome c6 (petJ) of Nostoc sp; PCC 7119; also called Cyt c 6; source: E. coli co-transformed with pEC86, extracted from the periplasmic fraction, purified (ion exchange chromatography)
Consider B3, for which, in experiment [4], the “stoichiometry N” value turned out to be 1. The Kd in experiment [1] was found to be 13 µM. The same molecule yielded a Ka in experiment [3] of 78000 M⁻¹.
